Test results from PMC9084231.
pKd: −log10 of the molar value.

How the values were obtained:
Protein S (Homo sapiens) = Protein S (Homo sapiens) (UniProt P07225); conditions: cited from earlier work
[1] = molecular target: PRP6-HO7 (Proline-rich Protein domain CCP6 heptamerized) (human) (UniProt P04003); experiment: SDS-PAGE under reducing and non-reducing conditions; 4-12% gradient SDS-PAGE of the purified proteins, Coomassie (Blue Safe) staining and Western blot with anti-6xHis and anti-C4BP α-chain antibodies; reduced against non-reduced size

Sequence of UniProt P07225 (P07225 42-676): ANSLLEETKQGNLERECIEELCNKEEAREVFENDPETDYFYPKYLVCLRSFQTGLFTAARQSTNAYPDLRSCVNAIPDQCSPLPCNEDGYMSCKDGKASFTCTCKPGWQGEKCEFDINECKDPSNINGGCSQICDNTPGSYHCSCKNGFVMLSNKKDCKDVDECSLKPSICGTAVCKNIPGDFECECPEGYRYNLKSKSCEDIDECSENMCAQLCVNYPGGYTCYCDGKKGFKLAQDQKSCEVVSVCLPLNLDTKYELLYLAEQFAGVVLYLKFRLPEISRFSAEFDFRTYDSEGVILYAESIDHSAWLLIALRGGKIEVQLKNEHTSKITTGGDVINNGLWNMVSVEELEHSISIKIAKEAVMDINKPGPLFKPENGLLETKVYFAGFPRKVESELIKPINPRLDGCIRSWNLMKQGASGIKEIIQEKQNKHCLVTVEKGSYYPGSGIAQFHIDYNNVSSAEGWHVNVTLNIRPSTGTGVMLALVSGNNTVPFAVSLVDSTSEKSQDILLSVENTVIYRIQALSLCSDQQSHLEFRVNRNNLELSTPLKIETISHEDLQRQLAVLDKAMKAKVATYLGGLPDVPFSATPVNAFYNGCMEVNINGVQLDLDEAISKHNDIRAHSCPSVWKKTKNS

stoichiometry N [1] | Substance | pKd (Protein S (Homo sapiens))
 | C4BP beta-chain CCP1 (from UniProt P20851) | 10.00
7 | PRP6-HO7 (Proline-rich Protein domain CCP6 heptamerized) (from UniProt P04003 540-597) | 
